We go through 1 protein from US20020182666.

Data set [1] has as its target T1, recombinant human full-length TyrRS with C-terminal tag of six histidine residues.
T1 chain: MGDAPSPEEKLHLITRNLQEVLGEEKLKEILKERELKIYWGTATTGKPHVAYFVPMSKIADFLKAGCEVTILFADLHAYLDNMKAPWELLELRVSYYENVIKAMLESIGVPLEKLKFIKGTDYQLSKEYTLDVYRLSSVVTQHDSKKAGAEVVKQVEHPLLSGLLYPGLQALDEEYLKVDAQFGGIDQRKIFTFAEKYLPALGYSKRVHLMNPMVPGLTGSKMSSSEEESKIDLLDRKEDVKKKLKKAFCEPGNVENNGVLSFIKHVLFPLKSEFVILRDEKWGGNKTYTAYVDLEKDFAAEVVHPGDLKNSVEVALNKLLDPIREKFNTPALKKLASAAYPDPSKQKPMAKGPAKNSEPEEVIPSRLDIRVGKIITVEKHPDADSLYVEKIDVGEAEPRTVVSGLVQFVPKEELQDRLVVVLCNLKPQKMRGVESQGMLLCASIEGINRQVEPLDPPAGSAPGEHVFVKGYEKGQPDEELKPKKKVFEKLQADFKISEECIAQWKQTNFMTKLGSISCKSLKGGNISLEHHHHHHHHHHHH

In data set [2] the target is T2, recombinant human full-length TrpRS with C-terminal tag of six histidine residues.
T2 chain: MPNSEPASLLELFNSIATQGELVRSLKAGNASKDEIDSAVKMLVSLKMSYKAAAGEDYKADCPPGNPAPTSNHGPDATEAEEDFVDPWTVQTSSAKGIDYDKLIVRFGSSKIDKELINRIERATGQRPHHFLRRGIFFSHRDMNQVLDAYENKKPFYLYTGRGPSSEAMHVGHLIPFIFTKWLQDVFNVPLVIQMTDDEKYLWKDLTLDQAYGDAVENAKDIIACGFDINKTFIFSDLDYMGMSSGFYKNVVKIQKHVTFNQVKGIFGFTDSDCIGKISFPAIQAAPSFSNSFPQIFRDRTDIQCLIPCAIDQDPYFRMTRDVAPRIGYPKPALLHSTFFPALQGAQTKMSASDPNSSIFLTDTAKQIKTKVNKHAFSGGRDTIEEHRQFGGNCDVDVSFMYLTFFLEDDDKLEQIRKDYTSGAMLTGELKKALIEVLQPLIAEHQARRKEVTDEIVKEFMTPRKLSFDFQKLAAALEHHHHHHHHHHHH

B1: PMN elastase (protein)
chain: IVGGRRARPHAWPFMVSLQLRGGHFCGATLIAPNFVMSAAHCVANVNVRAVRVVLGAHNLSRREPTRQVFAVQRIFENGYDPVNLLNDIVILQLNGSATINANVQVAQLPAQGRRLGNGVQCLAMGWGLLGRNRGIASVLQELNVTVVTSLCRRSNVCTLVRGRQAGVCFGDSGSPLVCNGLIHGIASFVRGGCASGLYPDAFAPVAQFVNWIDSIIQ
Turning to B1, the “cleavage of full-length TyrRS by PMN elastase (SDS-PAGE, immunoblot)” value in data set [1] was “the addition of PMN elastase to full-length TyrRS generated a doublet of ~40 kD fragments and a ~24 kD fragment”. Besides, the “cleavage of full-length TrpRS by PMN elastase (SDS-PAGE)” value in data set [2] was “PMN elastase cleavage of the 54 kDa full-length TrpRS generated a major fragment of 47 kDa and a minor fragment of 44 kDa”.
